Fewer inactive variants are shown than the library holds.
Experiments:
[1] = system: biotinyl-Phe-oxazolone; assay: self-aminoacylation, catalytic enhancement (BFO) (fold over background); higher = more active; k-Seq, kA / k0A0; sequences stand for … in GGGAAUGGAUCCACAUCUACGAAUUC…UUCACUGCAGACUUGACGAAGCUG
How it was run: (§1)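 Mutagenized RNA pools with a 21-nt variable region (0.43 μM) were reacted with each biotinyl-aminoacyl-oxazolone at 2–1250 μM for 90 minutes at room temperature, in 50 μL HEPES/NaCl/KCl/MgCl2/CaCl2 buffer containing 5% acetonitrile at pH 6.9–7.0. RNA captured on streptavidin was quantified by triplicate qPCR and by Illumina sequencing. The fraction reacted for each sequence was fit to a pseudo-first-order model with bootstrapping, and catalytic enhancement is the median kA divided by the uncatalyzed rate, taken as the low-activity peak of a bimodal Gaussian fit.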

[2] = system: biotinyl-Ile-oxazolone; assay: self-aminoacylation, catalytic enhancement (BIO) (fold over background); higher = more active; k-Seq, kA / k0A0; sequences stand for … in GGGAAUGGAUCCACAUCUACGAAUUC…UUCACUGCAGACUUGACGAAGCUG
How it was run: as §1

[3] = system: biotinyl-Met-oxazolone; assay: self-aminoacylation, catalytic enhancement (BMO) (fold over background); higher = more active; k-Seq, kA / k0A0; sequences stand for … in GGGAAUGGAUCCACAUCUACGAAUUC…UUCACUGCAGACUUGACGAAGCUG
How it was run: as §1

[4] = system: biotinyl-Val-oxazolone; assay: self-aminoacylation, catalytic enhancement (BVO) (fold over background); higher = more active; k-Seq, kA / k0A0; sequences stand for … in GGGAAUGGAUCCACAUCUACGAAUUC…UUCACUGCAGACUUGACGAAGCUG
How it was run: as §1

[5] = system: biotinyl-Leu-oxazolone; assay: self-aminoacylation, catalytic enhancement (BLO) (fold over background); higher = more active; k-Seq, kA / k0A0; sequences stand for … in GGGAAUGGAUCCACAUCUACGAAUUC…UUCACUGCAGACUUGACGAAGCUG
How it was run: as §1

[6] = system: biotinyl-Trp-oxazolone; assay: self-aminoacylation, catalytic enhancement (BWO) (fold over background); higher = more active; k-Seq, kA / k0A0; sequences stand for … in GGGAAUGGAUCCACAUCUACGAAUUC…UUCACUGCAGACUUGACGAAGCUG
How it was run: as §1

| Sequence | self-aminoacylation [1] | self-aminoacylation [2] | self-aminoacylation [3] | self-aminoacylation [4] | self-aminoacylation [5] | self-aminoacylation [6] |
| --- | --- | --- | --- | --- | --- | --- |
| AUUACCCAGUUCAUCGAGUGA [Fam2.1 aminoacylation ribozyme variant] | 16.8 | 2.14 | 3.69 | 2.62 | 3.09 | 4.78 |
| CUACUUCAAACAAUGGGUCAG [Fam1A.1 aminoacylation ribozyme variant] | 0.92 | 0.6 | 0.648 | 0.589 | 0.651 | 0.5 |
| AUUCACCCCGGUCAUCGGGUG [Fam2.2 aminoacylation ribozyme variant] | 64.7 | 4.14 | 7.52 | 3.99 | 8.33 | 5.88 |
| CUACUUCCAACAAUCGGGCUG [Fam1A.1 aminoacylation ribozyme variant] | 0.889 | 1.59 | 2.11 | 1.27 | 1.28 | 0.982 |
| AUUCCCUUAGGUCAUCGGGUG [Fam2.2 aminoacylation ribozyme variant] | 295 | 19.3 | 33.4 | 20.2 | 44.3 | 30.7 |
| AUUACCCUGGUCAUGGAGGGA [Fam2.1 aminoacylation ribozyme variant] | 2.1 | 1.82 | 1.83 | 1.76 | 1.86 | 2.23 |
| AAGUUUGCUGUUAGUCGCAAG [Fam3.1 aminoacylation ribozyme variant] | 0.937 | 0.911 | 0.895 | 0.855 | 0.912 | 1.37 |
| AUUACCCUCGUUAUCGAGUGA [Fam2.1 aminoacylation ribozyme variant] | 91.9 | 5.66 | 13.8 | 5.63 | 13.9 | 17 |
| AAGUUAGCUAACAGUCGCAAG [Fam3.1 aminoacylation ribozyme variant] | 2.2 | 1.83 | 2.31 | 1.68 | 1.66 | 1.56 |
| GAGUUUGCUAAUUGUCGCAAG [Fam3.1 aminoacylation ribozyme variant] | 2.2 | 1.36 | 1.34 | 1.24 | 1.53 | 2.06 |
| AUUCCCCUAGGUCAUCGGUUG [Fam2.2 aminoacylation ribozyme variant] | 11.7 | 3.4 | 3.19 | 3.38 | 3.94 | 2.16 |
| AAGUUUGCAAAGAGUCGCAAG [Fam3.1 aminoacylation ribozyme variant] | 1.41 | 0.841 | 0.929 | 0.832 | 0.949 | 1.54 |
| AGUCACCUAGGUCAUCGCGUG [Fam2.2 aminoacylation ribozyme variant] | 97 | 8.4 | 14.4 | 9.1 | 18.3 | 14.3 |
| AUUCAGCUAGGUUAUCGGGUG [Fam2.2 aminoacylation ribozyme variant] | 60.4 | 5.01 | 7.59 | 5.16 | 9.36 | 8.86 |
| AUAACCCUUGUCAUCGAGUGA [Fam2.1 aminoacylation ribozyme variant] | 21.5 | 3.29 | 6.3 | 3.13 | 6.26 | 7.89 |
| AUUCACCUAGGUCAAUGGGUG [Fam2.2 aminoacylation ribozyme variant] | 6.93 | 1.42 | 1.75 | 1.38 | 2.23 | 1.65 |
| GUGACCCUGGUCAUCGAGUGA [Fam2.1 aminoacylation ribozyme variant] | 144 | 7.41 | 21.7 | 7.42 | 19.6 | 17.8 |
| AAGUUUGCUAAUAGUUGCACG [Fam3.1 aminoacylation ribozyme variant] | 1.38 | 1.11 | 1.31 | 1.14 | 1.1 | 1.75 |
| CCACACUUGAAGCAAUCGGUC [Fam1B.1 aminoacylation ribozyme variant] | 0.778 | 0.836 | 0.782 | 0.926 | 0.735 | 0.805 |
| AAGUUUGCUAGUAGUCGCGAG [Fam3.1 aminoacylation ribozyme variant] | 3.65 | 1.27 | 1.08 | 1.54 | 1.25 | 2.01 |
| CUACUUCAAACAAUCUAUCUG [Fam1A.1 aminoacylation ribozyme variant] | 0.981 | 0.507 | 0.461 | 0.579 | 0.485 | 0.474 |
| AUUAACCUGGUCAUCGAGAGA [Fam2.1 aminoacylation ribozyme variant] | 0.933 | 0.888 | 0.749 | 0.783 | 0.844 | 0.872 |
| AUGCACCUAGGUCAGCGGGUG [Fam2.2 aminoacylation ribozyme variant] | 18.1 | 3.27 | 3.65 | 3.02 | 4.65 | 5.27 |
| CCACAUUUCAAGCGAUCGGUC [Fam1B.1 aminoacylation ribozyme variant] | 1.52 | 1.54 | 1.31 | 1.64 | 1.62 | 1.16 |
| ACGUUUGCUAAUAGUCGAAAG [Fam3.1 aminoacylation ribozyme variant] | 5.96 | 1.37 | 1.58 | 1.24 | 1.09 | 2.68 |
| GUUUACCUAGGUCAUCGGGUG [Fam2.2 aminoacylation ribozyme variant] | 201 | 16.2 | 29 | 14.1 | 39.7 | 23.9 |

| Sequence | self-aminoacylation [1] | self-aminoacylation [2] | self-aminoacylation [3] | self-aminoacylation [4] | self-aminoacylation [5] | self-aminoacylation [6] |
| --- | --- | --- | --- | --- | --- | --- |
| CCUCACUUCAAGCAGUCGGUC [Fam1B.1 aminoacylation ribozyme variant] | 1.1 | 0.786 | 0.646 | 0.855 | 0.892 | 0.928 |
| CCACACUUCAAGGAAUCUGUC [Fam1B.1 aminoacylation ribozyme variant] | 0.473 | 0.384 | 0.442 | 0.446 | 0.318 | 0.287 |
| AUUCACCUAUGUGAUCGGGUG [Fam2.2 aminoacylation ribozyme variant] | 15.9 | 1.69 | 2.14 | 1.99 | 2.74 | 2.25 |
| CUACUUCAAAGAAGCGGUCUG [Fam1A.1 aminoacylation ribozyme variant] | 1.17 | 1.09 | 1.01 | 0.988 | 0.82 | 0.832 |
| AUGACCCUGCUCAUCGAGUGA [Fam2.1 aminoacylation ribozyme variant] | 1.52 | 1.36 | 1.83 | 1.43 | 1.95 | 2.47 |
| AAGUUUGCUAGUAGUCGCAUG [Fam3.1 aminoacylation ribozyme variant] | 0.822 | 0.903 | 0.737 | 0.873 | 0.808 | 1.4 |
| AAUACCCUGGUCAUCGGGUGA [Fam2.1 aminoacylation ribozyme variant] | 77.3 | 7.82 | 12.1 | 7.46 | 11.8 | 15.9 |
| AGUACCCUGGUCAUCCAGUGA [Fam2.1 aminoacylation ribozyme variant] | 34.7 | 3.06 | 5.15 | 2.86 | 5.87 | 6.9 |
| AUUCACGUAGGCCAUCGGGUG [Fam2.2 aminoacylation ribozyme variant] | 48.1 | 3.71 | 4.29 | 5.3 | 4.12 | 5.37 |
| CUUCACCUACGUCAUCGGGUG [Fam2.2 aminoacylation ribozyme variant] | 37.8 | 3.06 | 5.1 | 3.69 | 5.63 | 4.58 |
| AUUCAUCUAGGUCAUCGUGUG [Fam2.2 aminoacylation ribozyme variant] | 4.8 | 1.05 | 1.16 | 0.915 | 1.23 | 0.882 |
| AUUUCCCAGGUCAUCGAGUGA [Fam2.1 aminoacylation ribozyme variant] | 26.3 | 2.89 | 5.06 | 3.4 | 5.63 | 6.32 |
| UUUACCCUGGUCAUCGUGUGA [Fam2.1 aminoacylation ribozyme variant] | 15.3 | 1.66 | 2.98 | 2.06 | 3.11 | 3.71 |
| AUUACCCUGGUCAGCGAGAGA [Fam2.1 aminoacylation ribozyme variant] | 0.961 | 1.43 | 1.27 | 1.51 | 1.26 | 1.54 |
| AAUUUUGCUAAUAGUCGCGAG [Fam3.1 aminoacylation ribozyme variant] | 8.52 | 2.28 | 1.99 | 1.51 | 1.7 | 2.02 |
| CCAUUUCAAACAAUCGGUCUG [Fam1A.1 aminoacylation ribozyme variant] | 7.75 | 1.03 | 1.13 | 1.04 | 1.19 | 5.46 |
| CGUCACCUAGGUCAUCGGGUG [Fam2.2 aminoacylation ribozyme variant] | 28.9 | 3.51 | 3.71 | 5.16 | 4.11 | 6 |
| AUUCACCUAGGUGAUUGGGUG [Fam2.2 aminoacylation ribozyme variant] | 13.2 | 2.17 | 2.68 | 2.41 | 3.06 | 2.96 |
| CCACACUCCAAGCAAACGGUC [Fam1B.1 aminoacylation ribozyme variant] | 1.06 | 0.95 | 0.934 | 0.773 | 0.861 | 1.21 |
| AUUACCCAUGUCAUCGAGUGA [Fam2.1 aminoacylation ribozyme variant] | 34.3 | 4.15 | 7.7 | 4.43 | 8.07 | 9.9 |
| AUUGACCUAGGUCACCGGGUG [Fam2.2 aminoacylation ribozyme variant] | 29.6 | 4.43 | 4.69 | 4.87 | 6.34 | 6.05 |
| AUUCUCCUAGGUCAUCGGGUA [Fam2.2 aminoacylation ribozyme variant] | 29.6 | 4.71 | 7.07 | 4.84 | 8.96 | 7.31 |
| CUUCACGUAGGUCAUCGGGUG [Fam2.2 aminoacylation ribozyme variant] | 36.6 | 3.59 | 4.38 | 4.16 | 4.22 | 4.63 |
| AUUACCCUUGUCAUAGAGUGA [Fam2.1 aminoacylation ribozyme variant] | 36.6 | 4.36 | 8.7 | 4.59 | 8.53 | 11 |
| AUACACCUAGGUCAUGGGGUG [Fam2.2 aminoacylation ribozyme variant] | 18.6 | 2.52 | 3.51 | 2.26 | 3.49 | 3.4 |

Source: the supplement of paper PMC9233669
